Source: patent US8440804B2, “Polypeptides having modulatory effects on cells” (Ecole Normale Superieure de Lyon, priority 2006, dated 2013)

What was measured:
CNA = experiment: Yeast two-hybrid assay; format: binding, human; details: mating assay, LexA-aptamer fusions
Text: (§1) (A) Yeast two-hybrid mating assay. TB50α yeast were co-transformed with pSH18-34T (bearing a lacZ reporter gene) and plasmids directing the expression of LexA alone or in fusion with peptide aptamers R5G42, R7G44 or R5G52. MB210a yeast were transformed with the selected cDNA library plasmids directing the expression of CNAβ, CNAγ, and NS5ATP2 truncated proteins. To obtain negative controls, MB210a yeast were also transformed with the empty prey plasmid (pJG4-5) and with pJG4-5 directing the expression of Ras and FKBP12 prey proteins. To obtain a positive control, MB210a yeast were transformed with pJG4-5 directing the expression of RG22 peptide aptamer prey fusion protein that interacts with LexA in the context of most LexA fusion proteins.
(§2) The inventors set out to map the R5G42 binding site on CNA. The CNA interacting clones selected in the yeast two-hybrid experiments corresponded to the carboxy-terminal regions of the beta and gamma isoforms, encompassing the calmodulin-binding domain and the auto-inhibitory domain (see FIG. 3B). […] The LexA-R5G52 bait protein may thus not be properly expressed and/or folded in this yeast two-hybrid setting.
The inventors explored the ability of R5G42 mutants having a one amino acid change as compared to R5G42, to bind to CNA beta and gamma C-Terminal fragments (FIG. 3b) and to NS5A-TP2. To this end, they proceeded to yeast-two hybrid assays as in example 3. CNA beta and gamma C-Terminal fragments (FIG. 3b) and NS5A-TP2 were cloned in three different plasmids (pSH18-34, pJK103 and pRB18-40), which differed from each other in the level of sensitivity of their promoter to the bait/prey complex formation, pSH18-34 having the highest sensitivity and pRB18-40 having the lowest.
The 5′ end of RH6 (upper case) matches part of the HA epitope tag and the 5′ ends of RH4, RH3 and RH7 (upper case) match the 5′ extremity of the ADH terminator. The PCR reactions was performed using pCMV-SPORT6-CnAβ as a template. CnAβCter Δ1, Δ2, CaM were constructed by combining oligonucleotides RH6/RH4, RH6/RH3, RH6/RH7, respectively. […]

peptide aptamer RG22 = experiment: Yeast two-hybrid mating assay, positive control of interaction; format: binding; details: RG22 interacts with LexA in most LexA fusion proteins
Text: as §1, §2
The 5′ end of RH6 (upper case) matches part of the HA epitope tag and the 5′ ends of RH4, RH3 and RH7 (upper case) match the 5′ extremity of the ADH terminator. The PCR reactions was performed using pCMV-SPORT6-CnAβ as a template. […]

[1] = system: CNA fragments (CNA constructs CNA1-CNA11); experiment: Further yeast two-hybrid binding assays (higher sensitivity); set-up: species or system human
Text: FIG. 14. Specificity of aptamers according to the invention for CNA and NS5A-TP2 Interaction matrix between peptide aptamers R5G42, C2, C7, C8, N9, R5G44 and R5G52 with CNA constructs CNA1-CNA8 (A) CNA9-11 (B) and NS5A-TP2 (C). An interaction phenotype between CNA3/CNA 11, which both contain the Calmodulin binding domain (CaM) and the auto-inhibitory domain (Al) but not the CNB binding domain (CNB) and the aptamers R5G42, C2, C7, C8 and N9 is observed in a two-hybrid assay. R5G44 and R5G52 aptamers recognize neither the CNA fragments, nor NS5A-TP2. Only aptamers R5G42 and N9 recognize NS5A-TP2.
The inventors proceeded to further yeast two-hybrid binding assays between peptide aptamers R5G42 (SEQ ID 22), C2 (SEQ ID 23), C7 (SEQ ID 27), C8 (SEQ ID 28), N9 (SEQ ID 33), R5G44 and R5G52 with CNA constructs CNA1-CNA8 (FIG. 14A), CNA9-CNA11 (FIG. 14B) and NS5A-TP2 (SEQ ID 15) (FIG. 14C). The sensitivity of this yeast two-hybrid assay was higher than in the experiment reported above.

[2] = system: Bad phosphorylation (phosphatase activity of calcineurin in cells); experiment: Monitoring of Bad phosphorylation in HeLa cells (western blot); format: cell-based; details: transient expression in human cells
Procedure: (B) Monitoring of BAD phosphorylation in cultured cells. Hela-Tet cells were transfected with plasmids directing the transient expression of BAD, CNAβ, CNB and peptide aptamers R5G42, R5G52 or R7G44. Transfected cells were treated or not with 500 nM FK506. The expression level of BAD and the phosphorylation of serine 112 and 136 residues were monitored by western blot experiments using specific antibodies.
The inventors set out to confirm this finding in human cells. Bad is a key pro-apoptotic protein whose activity is tightly regulated by its phosphorylation status, itself controlled by the balanced activity of several protein kinases and calcineurin. Therefore, the phosphatase activity of calcineurin in cells can be monitored by examining Bad phosphorylation. HeLa cells were transfected with plasmids directing the expression of Bad, CNAβ, CNB and either R5G42, R5G52 or R7G44.
The peptide aptamer coding genes were cloned into pPEAt (a pCEP4-based vector that bears a tetracyclin-inducible promoter and a hygromycin resistance gene), as described above (“cell proliferation assay”).
4×10^5 Hela-tet cells/well were seeded in a 6-well plate 24 h before transfection. […] The lysates were centrifuged to remove cellular debris and the protein content was quantified using the microBCA protein assay kit (Pierce). […]

MCF-7 cells = experiment: Colony formation assay (cell proliferation assay, crystal violet); format: cell-based; details: MCF-7, continuous expression 2 weeks, compared to AptaLib and human thioredoxin
Procedure: (§3) (B) Colony formation assays. Hela or MCF-7 cells were transfected with plasmids directing the stable expression of the Cdk inhibitor p21, a library of peptide aptamers from pBK1 (AptaLib), Human thioredoxin (HTRX), and peptide aptamers R7G44, R5G42, R5G52. The cells were cultured for two weeks and the colonies were stained with crystal violet.
(§4) The inventors wished to establish the antiproliferative activity of these peptide aptamers using alternative cellular models and a non-retroviral vector to express individually each aptamer. They cloned the aptamer coding genes into a vector bearing a hygromycin selection marker. They also subcloned the pBK1 library into this vector, to create “AptaLib”. They continuously expressed the aptamers, the empty thioredoxin scaffold or AptaLib in Hela and MCF-7 cells for 2 weeks and they stained the cells that grew. […] These aptamers may originate from the remaining background of slowly proliferating cells during the seventh screening iteration, independently of the expressed aptamers. […] This could be due to the fact that the CMTMR assay is more sensitive in detecting modest antiproliferative effects than the colony formation assay or that some peptide aptamers somehow enhance the CMTMR labeling of their host cells.
(§5) To stably express peptide aptamers in mammalian cells, the episomal eukaryotic expression vector pCEP4 that bears a CMV promoter and a hygromycin selection marker (InVitrogen) was used. Aptamer coding sequences were PCR amplified using the oligonucleotides
(§6) that contained a stop codon. The PCR products were digested with NheI and NotI and ligated into NheI/NotI-cut pCEP4 to create pEA-aptamer plasmids. 3×10^5 cells/well were plated in 6-well plates and transfected 24 h after using Jet PEI (Qbiogen), 3.7 μg pEA-aptamer plasmids and 0.3 μg pEGFP-C1 (Clontech) to monitor transfection. Hygromycin (InVitrogen) was added at 200 μg/ml two days later and the cells were cultured for 2 weeks, renewing the medium twice a week. The cells were then rinsed in PBS and were fixed and stained by incubating 30 min in crystal violet (0.05% crystal violet, 20% ethanol, 0.37% formaldehyde). Excess crystal violet was removed by washing with water. In Vitro Phosphatase Assay

Hela cells = experiment: as above; format: cell-based; details: continuous expression 2 weeks, compared to AptaLib and human thioredoxin
Procedure: as §3, §4, §5, §6

B1: R5G52: peptide aptamer: variable region IQSPPESPTG in human thioredoxin (SEQ ID 32) (protein)
chain: MVKQIESKTAFQEALDAAGDKLVVVDFSATWCGPIQSPPESPTGGPCKMIKPFFHSLSEKYSNVIFLEVDVDDCQDVASECEVKCMPTFQFFKKGQKVGEFSGANKEKLEATINELV
modifications: left off: large carriers
yeast two-hybrid interaction phenotype with CNA (CNA): did not show an interaction phenotype | yeast two-hybrid interaction phenotype (peptide aptamer RG22): did not show an interaction phenotype | recognition of the CNA fragments [1]: recognized neither the CNA fragments | Bad phosphorylation levels [2]: does not affect Bad phosphorylation levels | inhibition of cell proliferation (colony formation) (MCF-7 cells): significantly inhibited the proliferation | inhibition of cell proliferation (colony formation) (Hela cells): significantly inhibited the proliferation
